B1: SMG5 (parent)
chain: TNPDLIIVCAQSSQSLWNRLSVLL
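Also: lentivirally expressed fusions sorted by FACS into six bins by GFP to DsRed ratio, PSI derived from sequencing read proportions per bin multiplied by bin number.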

The variants in the series derive from B1. As to the kind of experiment: protein stability index of a GFP-peptide fusion (GPS, HEK-293T) (PSI 1-6); higher = more stable. The note with it: c terminus: a fixed tail appended.
TNPDLIIVCAQSSQSLWNRLSVSL [L23S]: the protein stability index was found to be 2.68.
In the case of TNPDLIIVCAQSSQSLWNRLSVEL [L23E], the protein stability index stood at 2.75.
Regarding TNPDLIIVCAQSSQSLWGRLSVLL [N18G], the protein stability index was determined as 2.69.
As for TNPDLIIVCAQSSQSLWERLSVLL [N18E], the protein stability index was determined as 1.56.
As to TNPDLIIVCAQSSQSLWYRLSVLL [N18Y], the protein stability index stood at 3.31.
For TNPDLIIVCAQSSQSLWVRLSVLL [N18V], the protein stability index was found to be 1.91.
Regarding TNPDLIIVCAQSSQSLWPRLSVLL [N18P], the protein stability index was 3.09.
Regarding TNPDLIIVCAQSSQSLWARLSVLL [N18A], the protein stability index turned out to be 3.11.
The result for TNPDLIIVCAQSSQSLWRRLSVLL [N18R] reads 1.49; that for TNPDLIIVCAQSSQSLWTRLSVLL [N18T], 2.56.
With TNPDLIIVCAQSSQSLWKRLSVLL [N18K], the protein stability index stood at 2.
In the case of TNPDLIIVCAQSSQSLWNRLSVLW [L24W] it was 2.26; in that of TNPDLIIVCAQSSQSLWNRLSVLH [L24H], 2.54; in that of TNPDLIIVCAQSSQSLWNRLSVLR [L24R], 1.93.
For TNPDLIIVCAQSSQSLWNRLSVLS [L24S], the protein stability index came out at 1.38.
Regarding TNPDLIIVCAQSSQSLWNRLSVLQ [L24Q], the protein stability index came out at 1.92.
In the case of TNPDLIIVCAQSSQSLWNRLSVLP [L24P] it was 1.38; in that of TNPFLIIVCAQSSQSLWNRLSVLL [D4F], 1.71; in that of TNPALIIVCAQSSQSLWNRLSVLL [D4A], 1.33.
On to TNPSLIIVCAQSSQSLWNRLSVLL [D4S], for which the protein stability index amounted to 1.76.
For the variant TNPHLIIVCAQSSQSLWNRLSVLL [D4H], the protein stability index was 3.73.
In the case of TNPKLIIVCAQSSQSLWNRLSVLL [D4K] it was 3.33; in that of TNPDLTIVCAQSSQSLWNRLSVLL [I6T], 1.79.
For TNPDLVIVCAQSSQSLWNRLSVLL [I6V], the protein stability index amounted to 4.02.
In the case of TNPDLYIVCAQSSQSLWNRLSVLL [I6Y] it was 2.83; in that of TNPDLWIVCAQSSQSLWNRLSVLL [I6W], 2.5; in that of TNPDLFIVCAQSSQSLWNRLSVLL [I6F], 2.5.
For the variant TNPDLPIVCAQSSQSLWNRLSVLL [I6P], the protein stability index was 2.57.
As for TNPDLHIVCAQSSQSLWNRLSVLL [I6H], the protein stability index is 1.66.
As for TNPDLLIVCAQSSQSLWNRLSVLL [I6L], the protein stability index was determined as 2.64.
In the case of TNPDLSIVCAQSSQSLWNRLSVLL [I6S], the protein stability index is 2.87.
The result for TNPDLAIVCAQSSQSLWNRLSVLL [I6A] reads 2.1; that for TNPDLIIKCAQSSQSLWNRLSVLL [V8K], 1.47; that for TNPDLIICCAQSSQSLWNRLSVLL [V8C], 1.36.
Consider TNPDLIINCAQSSQSLWNRLSVLL [V8N], for which the protein stability index is 1.88.
In the case of TNPDLIITCAQSSQSLWNRLSVLL [V8T], the protein stability index was determined as 1.72.
Regarding TNPDLIIECAQSSQSLWNRLSVLL [V8E], the protein stability index is 1.56.
As to TNPDLIIICAQSSQSLWNRLSVLL [V8I], the protein stability index turned out to be 2.93.
For the variant TNPDLIIQCAQSSQSLWNRLSVLL [V8Q], the protein stability index turned out to be 1.85.
Take TNPDLIIHCAQSSQSLWNRLSVLL [V8H]: the protein stability index came out at 1.91.
TNPDLIIYCAQSSQSLWNRLSVLL [V8Y]: the protein stability index is 2.59.
The result for TNPDLIILCAQSSQSLWNRLSVLL [V8L] reads 3.74; that for TNPDLIIVCCQSSQSLWNRLSVLL [A10C], 2.61; that for TNPDLIIVCKQSSQSLWNRLSVLL [A10K], 1.59.
Take TNPDLIIVCMQSSQSLWNRLSVLL [A10M]: the protein stability index stood at 2.8.
As to TNPDLIIVCQQSSQSLWNRLSVLL [A10Q], the protein stability index was 2.4.
For TNPDLIIVCPQSSQSLWNRLSVLL [A10P], the protein stability index came to 4.01.
As for TNPDLIIVCVQSSQSLWNRLSVLL [A10V], the protein stability index was 4.35.
In the case of TNPDLIIVCNQSSQSLWNRLSVLL [A10N] it was 1.95; in that of TNPDLIIVCIQSSQSLWNRLSVLL [A10I], 3.25; in that of TNPDLIIVCHQSSQSLWNRLSVLL [A10H], 2.68.
As for TNPDLIIVCWQSSQSLWNRLSVLL [A10W], the protein stability index turned out to be 2.35.
On to RNPDLIIVCAQSSQSLWNRLSVLL [T1R], for which the protein stability index worked out at 1.37.
Regarding YNPDLIIVCAQSSQSLWNRLSVLL [T1Y], the protein stability index is 1.66.
As for MNPDLIIVCAQSSQSLWNRLSVLL [T1M], the protein stability index worked out at 2.97.
LNPDLIIVCAQSSQSLWNRLSVLL [T1L]: the protein stability index was found to be 2.36.
PNPDLIIVCAQSSQSLWNRLSVLL [T1P]: the protein stability index came out at 1.98.
For the variant HNPDLIIVCAQSSQSLWNRLSVLL [T1H], the protein stability index amounted to 2.44.
Turning to TNPDLIIVCAQSYQSLWNRLSVLL [S13Y], the protein stability index was 3.59.
With TNPDLIIVCAQSPQSLWNRLSVLL [S13P], the protein stability index was determined as 3.21.
In the case of TNPDLIIVCAQSMQSLWNRLSVLL [S13M] it was 2.
TNPDLIIVCAQSLQSLWNRLSVLL [S13L]: the protein stability index was found to be 2.97.
On to TNPDLIIVCAQSFQSLWNRLSVLL [S13F], for which the protein stability index worked out at 1.49.
The result for TNPDLIIVCAQSSQSLWNSLSVLL [R19S] reads 2.06; that for TNPDLIIVCAQSSQSLWNDLSVLL [R19D], 3.35.
As to TNPDLIIVCAQSSQSLWNLLSVLL [R19L], the protein stability index came out at 1.57.
Regarding TNPDLIIVCAQSSQSLWNILSVLL [R19I], the protein stability index is 1.75.
The result for TNPDLIIVCAQSSQSLWNMLSVLL [R19M] reads 2.1; that for TNPDLIIVCAQSSQSLWNYLSVLL [R19Y], 1.41; that for TNPDLIIVCAQSSQSLWNQLSVLL [R19Q], 2.95.
In the case of TNPDLIIVCAQSSQSLWNGLSVLL [R19G] it was 3.61; in that of TNPDLIIVCAQSSQSLWNCLSVLL [R19C], 2.09.
In the case of TNPDSIIVCAQSSQSLWNRLSVLL [L5S] it was 2.17; in that of TNPDYIIVCAQSSQSLWNRLSVLL [L5Y], 1.47.
TNPDFIIVCAQSSQSLWNRLSVLL [L5F]: the protein stability index was 3.72.
Turning to TNPDIIIVCAQSSQSLWNRLSVLL [L5I], the protein stability index is 2.06.
The result for TNPDTIIVCAQSSQSLWNRLSVLL [L5T] reads 2.4.
The result for TNPDDIIVCAQSSQSLWNRLSVLL [L5D] reads 1.76; that for TNPDGIIVCAQSSQSLWNRLSVLL [L5G], 1.54; that for TNPDNIIVCAQSSQSLWNRLSVLL [L5N], 1.63.
Consider TNPDRIIVCAQSSQSLWNRLSVLL [L5R], for which the protein stability index was 1.39.
Consider TNPDHIIVCAQSSQSLWNRLSVLL [L5H], for which the protein stability index was 1.29.
As for TNPDLINVCAQSSQSLWNRLSVLL [I7N], the protein stability index is 1.64.
TNPDLIGVCAQSSQSLWNRLSVLL [I7G]: the protein stability index is 2.55.
Consider TNPDLIKVCAQSSQSLWNRLSVLL [I7K], for which the protein stability index was determined as 1.71.
For the variant TNPDLIAVCAQSSQSLWNRLSVLL [I7A], the protein stability index was determined as 1.51.
In the case of TNPDLISVCAQSSQSLWNRLSVLL [I7S], the protein stability index stood at 1.34.
In the case of TNPDLILVCAQSSQSLWNRLSVLL [I7L], the protein stability index is 3.84.
In the case of TNPDLIDVCAQSSQSLWNRLSVLL [I7D], the protein stability index is 1.7.
Take TNPDLIHVCAQSSQSLWNRLSVLL [I7H]: the protein stability index was found to be 1.68.
With TNPDLIEVCAQSSQSLWNRLSVLL [I7E], the protein stability index was determined as 2.25.
For TNPDLIIVCAQNSQSLWNRLSVLL [S12N], the protein stability index stood at 1.99.
TNPDLIIVCAQDSQSLWNRLSVLL [S12D]: the protein stability index was found to be 2.12.
Consider TNPDLIIVCAQCSQSLWNRLSVLL [S12C], for which the protein stability index was 3.33.

The values above are taken from the supplement of paper PMC10567573.
